Laboratory results: patent US8637043B2, “Compositions useful as ligands for the formyl peptide receptor like 1 receptor and methods of use thereof” (Chemocentryx, Inc., priority 2001, dated 2014)
“And” between values parts separate entries of the source, which are not always exact repeats. Equal entries are not always repeated.

How the values were obtained:
[1] = test system: dendritic cells; assay: Dendritic cell infiltration after intradermal injection in mice (anti-DEC-205 staining); format: in vivo; design: key to Dendritic cell infiltration Score / Infiltration Score: 0 = none, 1 = slight, 2 = mild, 3 = moderate, 4 = severe
Text: The following chemokines were obtained from R&D Systems (Minneapolis, Minn.): vMCK-2, mC10, and GM-CSF. The following peptides were synthesized at Phoenix Pharmaceuticals (San Carlos, Calif.): SHAAYtide (SEQ ID NO:6), several […] MODIFIED peptides of SHAAGtide variant (SEQ ID NO:) (i.e. cyclized using the MPR-Cys linked cyclization), control peptide (SEQ ID NO:33, […]Gin Pro Gly lie Lys Arg Arg Trp Leu Met), randomly conjugated to OVA in either a 1:1 or 1:4 ratio (by MBS coupling method), and conjugated to OVA at the C-terminus (C-term, made by the addition of a cysteine), and SHAAGtide variant (SEQ ID NO:3). In three separate experiments, chemokines or peptides (2 μg or 20 μg in PBS) were injected intradermally into BALB/c or C57BI/6 mice (Jackson Laboratory; Bar Harbor, Me.). In each experiment, one mouse received an injection of PBS only as a negative control. At various times after injection, the mice were euthanized, and the area around the injection site was excised and subjected to immunohistology. Frozen sections were stained with anti-DEC-205 antibody (Bio-Whittaker Molecular Applications; Rockland, Me.) that recognizes a dendritic cell-specific molecule (Kraal et al., 1986). A relative staining number on a scale of […] was assigned to each section (0, none; 1, slight; 2, mild; 3, moderate; 4, severe).

[2] = test system: mononuclear cells; assay: Mononuclear cell infiltration into the dermis after intradermal injection; format: in vivo, Rhesus macaques
Protocol: Different amounts (8, 20, or 60 μg in 100 μl PBS) of different polypeptides (see Table 18) were injected intradermally in Rhesus macaques under anesthesia. Twenty-four and 48 hours later, 6 mm skin punch biopsies were taken using aseptic technique and then bisected. One portion of the biopsy was embedded in OCT compound, flash frozen in liquid nitrogen and stored at −70° C. The other portion was immersed in formalin and embedded in paraffin wax; subsequently, sections cut on a microtome were stained with hematoxylin and eosin and then microscopically examined for cell infiltration into the dermis (Table 18). As a negative control, monkeys were injected with PBS lacking any polypeptides.
Mononuclear cell infiltration was scored on a scale of 0 to 5:0, very mild perivascular mononuclear inflammatory infiltration throughout the dermis; 1, a mild perivascular mononuclear inflammatory infiltrate seen throughout the dermis; 2, a mild/moderate perivascular mononuclear inflammatory infiltrate seen throughout the dermis; 3, a moderate perivascular mononuclear inflammatory infiltrate seen throughout the dermis; 4, an extensive perivascular mononuclear inflammatory infiltrate seen throughout the dermis; 5, a florid perivascular mononuclear inflammatory infiltrate seen throughout the dermis. intermediate scores are indicates, e.g., “⅔” represents a score between 2 and 3.

[3] = test system: infiltrating cells; assay: Immunohistochemistry of infiltrating cells in injected skin samples; format: in vivo, Rhesus macaques; conditions: injected skin samples of Example 14
Protocol: To better define the identity of the infiltrating cells seen in Example 14 (Table 18), the same samples were analyzed by immunohistochemistry using antibodies specific for different cell types. These antibodies included: CD68 (expressed on macrophages, neutrophils and dendritic cells), MHC II (antigen-presenting cells, e.g. macrophages and dendritic cells), HAM-56 (macrophages), fascin (dendritic cells, endothelial cells and epithelial cells), elastase (neutrophils), cytokeratin (epithelial cells), CD3 (T cells), CD20 (B cells), and CD1a (Langerhans cells).

B1: mC10: chemokine obtained from R&D Systems (protein, UniProt P27784 22-116, looked up)
C-C motif chemokine 6: GLIQEMEKEDRRYNPPIIHQGFQDTSSDCCFSYATQIPCKRFIYYFPTSGGCIKPGIIFISRRGTQVCADPSDRRVQRCLSTLKQGPRSGNKVIA
Dendritic cell infiltration Score ([1]; BALBc mice, 2 μg, 6 hours): 2 | Dendritic cell infiltration Score ([1]; BALBc mice, 2 μg, 30 hours): 3 and 2 | Dendritic cell infiltration Score ([1]; BALBc mice, 20 μg, 6 hours): 2 | Dendritic cell infiltration Score ([1]; C57B1/6 mice, 2 μg dose, 6 hours, 0 none, 1 slight, 2 mild, 3 moderate, 4 severe, one animal per line): 1 (2×) and 2 | Dendritic cell infiltration Score ([1]; C57B1/6 mice, 2 μg dose, 30 hours): 2 and 1 | Dendritic cell infiltration Score ([1]; C57B1/6 mice, 2 μg dose, 51 hours): 0 | infiltration of DEC-205-labeled cells ([1]; summary of Tables 15, 16 and 17): excellent infiltration | Mononuclear cell infiltration score ([2]; 8 μg, 24 hours): 1 | Mononuclear cell infiltration score ([2]; 8 μg, 48 hours): 0 | Mononuclear cell infiltration score ([2]; 20 μg, 24 hours): 0 | Mononuclear cell infiltration score ([2]; 20 μg, 48 hours): 0 | Mononuclear cell infiltration score ([2]; 60 μg intradermally, 24 hours, scale 0 (very mild) to 5 (florid)): 0 | Mononuclear cell infiltration score ([2]; 60 μg, 48 hours): 0 | cell infiltration, in words ([2]; summary of Table 18): little to no infiltration | identity of infiltrating cells [3]: primarily antigen-presenting cells, including macrophages and dendritic cells, but few neutrophils
